# Reference: the DeepSol protein solubility set
# Assay: soluble on expression in E. coli; label from the status in PepcDB or PDB records
row,Sequence,soluble on expression in E. coli
1,MLTDLSIRNLAIIDSLHVSFDRGLTVLTGETGAGKSIIIDAVNLIMGGRASAELVRTGEEEATVEALFSLPTDAPLGQRLAAMGLDCDGELLVKRVVSRSGRNRVFIGGGLSTLAMLSDISRELVNIYGQHESQTLLRPENHLRLLDGFAGLDSLRADYAAIFDRYRETEARLRELDEGEREAARRLDLLSFQVEEIHAAALAPGEEEALAGERELLVNAERLSRGSEEAYEALYGDESSVLHLLARVKGRVAEISGVDASLAPLLDVVESAAAQLEDAALTLRGYGARIEADPARLEAVDERLDLIRRLKKKYAPTVEEIIAYGEEAAREMELLLNRDRTRSDLDRELETLAGRVRETGHGLSAKRHEAAKRLKAAMEREIHELAMKHALFDVAFEELPEPRQTGLDSVTFLFSPNPGEEPKPLARIASGGELSRLMLALKQVHPESDVPTLIFDEVDTGIGGATSALVGEKLKRVSRAQQVLCITHHPQVAAFADRHYKVEKRVEGGRTATAVTPLEGEDRVAEMARMLGGVTITGTTLDHAREMIEGARRAAVGG,not soluble
2,MGSDKIHHHHHHMKAAVYEGKKAIKMTELPTPKAGPNDVVIQNIYAGICGSDVAVYNHGSGTGHKIETDHEFGHEAVSKVVEVGDDVHDFKIGDRVYPYPLLARGDPSRAGSMGGFSEYILIPNAKLNRQLYLVPKEIDNHVAAMIEPFTVGTRAAKQTRPDKNDNAIVYGTGTIGMAAAVALKHLGVKQVMLVDLSDYRLNVAKELGFLTVNSSRDDVRSQAIEAFGKAEYSLHGEAPDTQIFLDAAGHNSILEDFLQFGPVGSRFVTVGVNNSKPQIDFLELIFGSKSVGGSGGYRPEDVQTVFEIMKERQSDLRKMVSQEFDWQDLEKGIQTATDTTISEKVLINYHL,not soluble
3,MSHFTQLKTKLTNRDCLVQALEDLKLQPHVFEQPQPLAGYYMDSQGYSAEIIIFGRTIKARADIGFRWNQSSGVYEVIHDEYETSPRLGEDFFSHKLMQTYGRRMVLAKTEELREKFGECTISEETKGQVQTLRLTFAGHQEVKQYARRLEHHHHHH,not soluble
4,SMRYTVSNLSMQTHAARFKTFFNWPSSVLVNPEQLASAGFYYVGNSDDVKCFCCDGGLRCWESGDDPWVQHAKWFPRCEYLIRIKGQEFIRQVQAS,soluble
5,MAHHHHHHMRHLYGPAPGCVLLSFDFNQMELRVLAHLSGDELLIKHLSSEYDVLSAMTRHITGLSDDEQVPPHLRETVKVVVYGLFYGMGLATMKERVKILMDSAHSVPSSQRKFTADTLLRAFHQRYPAAGKFLTRARIRAFHEARCVTLTGINDLSSEKDGNRRRQHSIARILQGSSSTLFQSAMVKVHERRHDIVPNLPAAPFALVLCIHDELIYSVVEGYVDVVARKIKGIMVEQAQVFSLRVPLRVSVKVGKTFGSLEKLDVP,soluble
6,MGSDKIHHHHHHMRDLLSKKSHRQLELLELLFEHKRWFHRSELAELLNCTERAVKDDLSHVKSAFPDLIFHSSTNGIRIINTDDSDIEMVYHHFFKHSTHFSILEFIFFNEGCQAESICKEFYISSSSLYRIISQINKVIKRQFQFEVSLTPVQIIGNERDIRYFFAQYFSEKYYFLEWPFENFSSEPLSQLLELVYKETSFPMNLSTHRMLKLLLVTNLYRIKFGHFMEVDKDSFNDQSLDFLMQAEGIEGVAQSFESEYNISLDEEVVCQLFVSYFQKMFFIDESLFMKCVKKDSYVEKSYHLLSDFIDQISVKYQIEMENKDNLIWHLHNTAHLYRQELFTEFILFDQKGNTIRNFQNIFPKFVSDIKKELSHYLETLEVCSSSMMVNHLSYTFITHTKHLVINLLQNQPKLKVLVMSNFDQYHAKFVAETLSYYCSNNFELEVWTELELSKESLEDSPYDIIISNFIIPPIENKRLIYSNNINTVSLIYLLNAMMFIRLDE,not soluble
7,TNGFLKILGLGSGHDDKDKLSSEELRTVVHEAGGLIPRRHQDMLISILDLEHVTVNDIMVPRSEITGIDINDDWKSISRQLTHSPHGRIVLYRDQIDEVVGMLRLRESYRLMLEKNEFTKETLLRAADEIYFIPEATPLNSQLLKFQRNKERIGLVVDEYGDIQGLITLEDILEEIVGEFT,not soluble
8,MSLDIRRANSADLNALNALEQQLFDGDRISPRQMKRFLHSDHAALFVADAGDQLAGYALLLFHQGTQLSRLYSIAVKPEFRGQRIAQSLVEQCERAALDQGSTTLRLEVREDNTAALKLYEKMGYKTLKLLIHYYDDLCDGRRMQKRLTPQESKVLLPMPLYVQTTPFTCGAACLLMSFACLDKTFEPSRTQEMQLWREATTIFMAAGHGGCSGQGLALAAARRGYHVELWNQSRSTPFIDSVRDPNKKQIIELVHQDFCQQLAEQDVSMIDAPPSQAQLEEWVRKGACVLLLISTYRFDGKKEPHWIVLSGLSDKFFFFHDPHAESEEHVSGSGYIPVGKAALSQIIGFGKQKQIACVVITPRLEGHHHHHH,soluble
9,MDNNEKEKSKSELLVVTGLSGAGKSLVIQCLEDMGYFCVDNLPPVLLPKFVELMEQGNPSLRKVAIAIDLRGKELFNSLVAVVDKVKSESDVIIDVMFLEASTEKLISRYKETRRAHPLMEQGKRSLINAINDEREHLSQIRSIANFVIDTTKLSPKELKERIRRYYEDEEFETFTINVTSFGFKHGIQMDADLVFDVRFLPNPYYVVDLRPLTGLDKDVYNYVMKWKETEIFFEKLTDLLDFMIPGYKKEGKSQLVIAIGCTGGQHRSVALAERLGNYLNEVFEYNVYVHHRDAHIESGEKK,not soluble
10,MGSDKIHHHHHHMSDTDKQAFLTSVSSKEQVKKVIEPRKVTKCPHCQSTHFVKNGKDCGNQRFLCRDCKKSFVEQTGTILYNTQKDIEVWEKYIHCMIEKYPLRKCAEICKINLATAFTWRHKILDALQNMMNEVELDGIVQADETYSTISYKGHHKNFNLPRPAHKRGTRATKRGISKEQVCVPCGINLDGKSVARISNLGKPSLKNIN,not soluble
11,SENWDLSSDEMQDGNAPELDVIEEHNPVTRDDENANPEEVVGDTRSPVQNILGKFEGDINKRLHIKRKRMETYIKDSFKDSNVKLEQLWKTNKQERKKINNKFCEQYITTFQKFDMDVQKFNEEQEKSVNNYQKEQQALKLSKCSQSQTLEAIKDMHENYMEGLMNLETNNYNMLFDVDGELRKEMSVFKKDLMKHTLKYSSSFPSSD,not soluble
12,MGSSHHHHHHSSGLVPRGSHMLPKPDQINQIIVLLNIYHGKKKPSEIAREMDITLQGVIYHMKNLRRDGLIDEENRITKKGFDFLYRQLSDMREFITSNILDLDSLMVWEAIAAEDITAGSTVHLRMKGGYLYAFLSGGGATGRAVNDSQAGGLVGITNLSGLIDVNFGKLSIIVIPDSIDGGISERLKKAAADLSPALFAAMGEAGYVALKNIGIEPDIEYSALQAAFEASVRGQNVVLVTSRRRLHYSMAEIPQLENRYNPVKANITDLS,soluble
13,MRIEVTIAKTSPLPAGAIDALAGELSRRISHHFPENLGNVTVRYATANNLSVIGASKEDKERISEILQETWESADDWFINE,not soluble
14,MGSDKIHHHHHHMKYSLGPVLYYWPKETLEDFYQQAANCSADTIYLGEAVCSKRRATKVGDWIEMAKTLAASGKQIVLSTLALVQASSELGELKRYVDNGEFLIEASDLGVVNLCAERKLPFVAGHALNCYNAVTLRLLRKQGMVRWCMPVELSRDWLANLLTQCEELGIRNQFEVEVLSYGHLPLAYSARCFTARSEDRPKDECETCCIKYPTGRSMLSQENQQVFVLNGIQTMSGYVYNLGNELTSMHGLVDMVRLSPMGNETFAMLEAFRANENGAAPLDLTSNSDCNGYWKRLPGLVLHA,not soluble
15,MNVVILDTGCANLNSVKSAIARHGYEPKVSRDPDVVLLADKLFLPGVGTAQAAMDQVRERELFDLIKACTQPVLGICLGMQLLGRRSEESNGVDLLGIIDEDVPKMTDFGLPLPHMGWNRVYPQAGNRLFQGIEDGAYFYFVHSYAMPVNPWTIAQCNYGEPFTAAVQKDNFYGVQFHPERSGAAGAKLLKNFLEM,soluble
16,MSLCGIAGLFNCNLPADELRLDQAVAKLTHRGPDDRGIFLDGRFGMGHTRLSIIDLAGGHQPLFSEDRRLALIANGEIYNFIELRSELTAAGFRFQTQSDSEVILHAYLAFGEGFLERIQGMFAFALYDALEGRLILARDRLGIKPLFLARRPDGIAFASEIKALLPLLDQPREIDPQGLAQYFQNQFSTGATTVLRGVERVLPGEAVVVEAGKTTRRFRYWSPLAVRTEELDFDEAAARFDALMERVMVEHMRSDVPFGLFLSGGVDSSLLLALLTRYSGEPIRTFSVGFPGTSLTDELPLAEGLARRFRSRHREIRPGPQDILHSLPLTVWAADDLMRDNASLPTSLLARAAGEELKVVFSGEGGDEVFAGYGRYRTSPLERLFKSLLAPGSGGFRTRGSFRGRWPKTLFGPALLAAAQSARRPVQESWRETPREWSDLQRMQYVDLCHALPDNLLVKADRMLMAWGVEGRVPFLDHRVVEFGLSLPDRLKIEGRQGKLFLKRWGERLVPAEQLYARKEGHHHHHH,not soluble
17,MSLSDQPVLFSRAAASCRLTLNREDKCHAINEEMIESLDHYLNEIENDTALRLVELTATGDKFFCAGGDIKSWSAYSPLDMGRKWIKRGNDVFNRLRNLPQLTVANLNGHTIGGGIELALCCDIRIARPHAKFSNPEVMLGMVPGWMGIERVLNQVGPVVGRQMLMLGKRLTAQEAQAANLIDEVVEKEQVESWMANQLAQLEKCGPVALAHIKQLILALENKHADYSHQLLAGLMSATQDCQQATHAFAEKAGVSFHNQEGHHHHHH,soluble
18,MAAQRRSLLQSEQQPSWTDDLPLCHLSGVGSASNRSYSADGKGTESHPPEDSWLKFRSENNCFLYGVFNGYDGNRVTNFVAQRLSAELLLGQLNAEHAEADVRRVLLQAFDVVERSFLESIDDALAEKASLQSQLPEGVPQHQLPPQYQKILERLKTLEREISGGAMAVVAVLLNNKLYVANVGTNRALLCKSTVDGLQVTQLNVDHTTENEDELFRLSQLGLDAGKIKQVGIICGQESTRRIGDYKVKYGYTDIDLLSAAKSKPIIAEPEIHGAQPLDGVTGFLVLMSEGLYKALEAAHGPGQANQEIAAMIDTEFAKQTSLDAVAQAVVDRVKRIHSDTFASGGERARFCPRHEDMTLLVRNFGYPLGEMSQPTPSPAPAAGGRVYPVSVPYSSAQSTS,soluble
19,MGSDKIHHHHHHMIKNLSKAKSTSKTSSTTSETLTPANYYDRWTDQSFMSATWFKKFLACEAEALAELTGKWQPVRDAKALVVGNWLHSYFESKQAHEKFKDEHPESISKRGPTKGQLKSDFKVANAMIQSLTNDHDFNLLYQGDKEVIVTGEIGGYPWKGKIDCLNLKQGYFVDLKTTADIYKVYWNPETREKESFVYAYNYPLQMAVYQELIKQQFGVTCKPYIVAVSKQDPPDKQAIDLPEYRLTNAMNQVLESQQHLQDIIKGEADPIQCGHCAYCRSTKKLESVVSADDLLID,not soluble
20,MDAIVMAGGFGQRLGMGEKPCVELLGKPLITYVIDNLRASKNIDRVFVAVSPVTPKTEIMIQERYKGEVQVIRTFGGNYVGDMIHAVETSNTAGPVMIIMSDLPLVNPDLIDSVIEKYREEGKPALSVYVPINVCRGTGTRPDTVFNKDGKLIVPAGVNILDSSQIRKEQEDFNLILDNPRLAINVNTVKDLQRCKDLLQCSN,soluble
21,MAHHHHHHMTHYSRKPQVSSKSAKAKVSDLRCHYKNTFETANVINGMPLRKAQQLYRQVLAKTRCIPFKRYNGKIGRTAQAKEWGQTKGRWPRKSVVAMMSLLKNAEANAIEKGLDPNQMVIKHVQVDQAARMRRRTYRAHGRITPYMCSPCHVQLFMSEKKERVPAPKSAPKK,not soluble
